Experimental data reported in patent publication US7094575B2 (priority 1999, dated 2006).
Values joined by “and” are separate entries in the source; they are usually repeats but may differ in a detail not shown here. Identical values can stand only once. Like-named read-outs stand apart in the source and are kept apart here. Where no end group is shown, it is not given here.

What was measured:
Daboiatoxin PLA2 [1] = biological target: Daboiatoxin PLA2 (Daboia siamensis, UniProt Q7T2R1+Q7T3T5); assay type: in vivo, mice; details: mouse, in vivo
[2] = biological target: daboiatoxin, the major PLA2 toxin of Daboia russelli siamensis venom (Daboia siamensis, UniProt Q7T2R1+Q7T3T5); assay type: biochemical
[3] = test system: Daboia russelli siamensis venom; assay type: in vivo, mice
[4] = test system: PLA2 activity of Daboia russelli siamensis venom; assay type: biochemical
[5] = test system: Daboia russelli siamensis (Thailand) venom; assay type: in vivo, mice
[6] = test system: Daboia russelli pulchella (Sri Lanka) venom; assay type: in vivo, mice
[7] = test system: Daboia russelli russelli (India) venom; assay type: in vivo, mice
[8] = test system: Daboia russelli siamensis venom; assay type: in vivo, mice; details: Table 6; for Paw oedema: 45 min, n = 3
Daboiatoxin PLA2 [9] = biological target: T1, Daboiatoxin PLA2 (Daboia siamensis, UniProt Q7T2R1+Q7T3T5); assay type: in vivo, mice
T1 sequence (Q7T2R1 whole entry, looked up): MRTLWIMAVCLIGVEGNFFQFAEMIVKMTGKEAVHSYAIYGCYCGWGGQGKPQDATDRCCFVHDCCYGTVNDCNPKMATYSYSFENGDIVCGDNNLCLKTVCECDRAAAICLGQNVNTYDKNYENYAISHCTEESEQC
T1 sequence (Q7T3T5 whole entry, looked up): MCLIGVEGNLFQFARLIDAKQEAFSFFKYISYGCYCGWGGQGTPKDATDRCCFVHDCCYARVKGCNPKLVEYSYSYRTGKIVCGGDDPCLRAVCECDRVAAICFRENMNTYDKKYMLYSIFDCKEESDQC

[10] = not given; remark: listed apart in the source

## GAFGIFTEDSTEK [PP-0005]
Daboiatoxin PLA2 [1]
  Anti-Inflammatory Activity: Negative
[2]
  PLA2-inhibitory activity (in words): fails to inhibit PLA2 activity
  PLA2 inhibition (%): −13%

## LSLQNGLYK [PP-0006]
[2]
  IC50: 250 µg
  PLA2 inhibition (%): 70%

## PGLPLSLQNG [P-0029]
[2]
  IC50: 40 µg
  PLA2 inhibition (%): 90%
mouse, in vivo
  Oedema (mg), inhibitor alone: 13 ± 2 mg

## PLPGLPLSKP [P-0009]
[2]
  IC50: 125 µg
  PLA2 inhibition (%): 80%

## PLPGLPLSLQNGLYCPGAFGIF [PP-0036]
Daboiatoxin PLA2 [1]
  Anti-Inflammatory Activity: Negative
[2]
  PLA2-inhibitory activity (in words): devoid of PLA2-inhibitory activity
  PLA2 inhibition (%): −3.0%

## PLPGLPLSLQNGLYK [PP-0008]
Daboiatoxin PLA2 [1]
  Anti-Inflammatory Activity: Negative
[2]
  PLA2-inhibitory activity (in words): insignificant
  PLA2 inhibition (%): 18%

B1: PAF: 140-kDa hexameric glycoprotein of six 23-kDa subunits purified from Python reticulatus serum; SEQ ID NO: 6 (protein, listed as Python reticulatus)
chain: MKSLQTICLLFIFIARGTSDKCEICHGFGDDCDGYQEECPSPEDRCGKILIDIALAPVSFRATHKNCFSSSICKLGRVDIHVWDGVYIRGRTNCCDNDQCEDQPLPGLPLSLQNGLYCPGAFGIFTEDSTEHEVKCRGTETMCLDLVGYRQESYAGNITYNIKGCVSSCPLVTLSERGHEGRKNDLKKVECREALKPASSD
[3]; 24 hr
  Protection against lethality, Survival/total: 4/4
[3]; mouse, in vivo, ip
  % neutralisation: 100%
[4]
  Inhibitory activity (IC50): 0.2 mg
[5]; 24 hr
  Protection against lethality, Survival/total: 3/3
[5]; mouse, in vivo, ip
  % neutralisation: 100%
[6]; 24 hr
  Protection against lethality, Survival/total: 3/3
[6]; mouse, in vivo, ip
  % neutralisation: 100%
[7]; 24 hr
  Protection against lethality, Survival/total: 3/3
[7]; mouse, in vivo, ip
  % neutralisation: 100%
[8]; venom 5 μg + 25 μg inhibitor
  % Inhibition (mean): 7.8%
[8]; venom 5 μg + 25 μg inhibitor subplantar, PAF is recombinant
  Paw oedema: 107 ± 20 mg
[8]; venom 5 μg + 50 μg inhibitor
  % Inhibition (mean): 46.5%
  Paw oedema: 62 ± 2.2 mg
[8]; venom 5 μg + 100 μg inhibitor
  % Inhibition (mean): 74.6%
  Paw oedema: 29 ± 0.8 mg
Daboiatoxin PLA2 [9]; 45 min, n = 3
  Paw oedema: 18 ± 6.0 mg and 13 ± 0.4 mg
Daboiatoxin PLA2 [9]; mouse, in vivo
  % Inhibition (mean): 89.4% and 92.1%
[10]; 24 hr
  Survival/total, PAF alone: 3/3
[10]; mice
  toxicity of native PAF: non-toxic
mouse, in vivo
  % Inhibition (mean) column, inhibitor alone: n.s.
N = 3
  Paw oedema (mg), inhibitor alone: 10 ± 5.2 mg
